Legend:
[1] = substrate: CC(=O)Oc1ccc([N+](=O)[O-])cc1; experiment: spectrophotometric hydrolysis assay (A410), Michaelis-Menten fit; format: biochemical, Flavobacterium johnsoniae; details: 50 mM HEPES pH 8.0, 30 °C
From the text: spectrophotometric hydrolysis assay (A410), Michaelis-Menten fit on FjoAcXE

[2] = substrate: CC(=O)Oc1ccc2c(C)cc(=O)oc2c1; experiment: spectrophotometric hydrolysis assay (A354), Michaelis-Menten fit; format: biochemical, Flavobacterium johnsoniae; details: 50 mM HEPES pH 8.0, 10% DMSO, 30 °C
From the text: spectrophotometric hydrolysis assay (A354), Michaelis-Menten fit on FjoAcXE

B1: FjoAcXE (Flavobacterium johnsoniae UW101) (protein)
chain: GCTSNKALIKTGDKKEDQNWTGTWATAQMLVEPKNMPPEPGLAQNTLRQIIKVSLGGKQIRLRFSNLFSDQPAVLKSVSVANVTEAPAVDIKTQKILSFKGSPQVTLGADEVVYSDAFDFELQPGQLLAITIHYGEISSNVSGHPGSRTTSYILQGDHINNESFAGAVKTDHWYSIMGVDISSVKNESNVVCLGNSIIDGRGSGTNKQNRWTDILASRLNANKNTAHIGVLNLGIGGNCVVRGGLGPTALNRFDRDVLSQSGTKWLIILEGINDIGGIRKAEDASVTAKEIIEGYKVMIDKAHAKGIKVFGGTILPFEKSFYDAPFKQDARDIVNEWIRTKGNFDAVIDFDKAMASDVGSKTILPDMHDNDFLHPNEKGYQRMGETVDLDLFQ
notes: predicted signal peptide (residues 1-21) removed; N-terminal His6-tag (p15TV-L); codon-optimized synthetic gene, expressed in E. coli BL21(DE3) codon plus
[1]
  Km: 900 ± 100 µM
  kcat: 121 ± 3 s⁻¹
  kcat/Km: 128000 M⁻¹ s⁻¹
[2]
  Km: 800 ± 100 µM
  kcat: 95.1 ± 4.4 s⁻¹
  kcat/Km: 115000 M⁻¹ s⁻¹
